The source of these data is patent US20040053357A1 (ICAGEN, published 2004).

The target of this assay is T1, Kv2.2 (UniProt Q92953 1-911, limits assumed).
T1 sequence (looked up): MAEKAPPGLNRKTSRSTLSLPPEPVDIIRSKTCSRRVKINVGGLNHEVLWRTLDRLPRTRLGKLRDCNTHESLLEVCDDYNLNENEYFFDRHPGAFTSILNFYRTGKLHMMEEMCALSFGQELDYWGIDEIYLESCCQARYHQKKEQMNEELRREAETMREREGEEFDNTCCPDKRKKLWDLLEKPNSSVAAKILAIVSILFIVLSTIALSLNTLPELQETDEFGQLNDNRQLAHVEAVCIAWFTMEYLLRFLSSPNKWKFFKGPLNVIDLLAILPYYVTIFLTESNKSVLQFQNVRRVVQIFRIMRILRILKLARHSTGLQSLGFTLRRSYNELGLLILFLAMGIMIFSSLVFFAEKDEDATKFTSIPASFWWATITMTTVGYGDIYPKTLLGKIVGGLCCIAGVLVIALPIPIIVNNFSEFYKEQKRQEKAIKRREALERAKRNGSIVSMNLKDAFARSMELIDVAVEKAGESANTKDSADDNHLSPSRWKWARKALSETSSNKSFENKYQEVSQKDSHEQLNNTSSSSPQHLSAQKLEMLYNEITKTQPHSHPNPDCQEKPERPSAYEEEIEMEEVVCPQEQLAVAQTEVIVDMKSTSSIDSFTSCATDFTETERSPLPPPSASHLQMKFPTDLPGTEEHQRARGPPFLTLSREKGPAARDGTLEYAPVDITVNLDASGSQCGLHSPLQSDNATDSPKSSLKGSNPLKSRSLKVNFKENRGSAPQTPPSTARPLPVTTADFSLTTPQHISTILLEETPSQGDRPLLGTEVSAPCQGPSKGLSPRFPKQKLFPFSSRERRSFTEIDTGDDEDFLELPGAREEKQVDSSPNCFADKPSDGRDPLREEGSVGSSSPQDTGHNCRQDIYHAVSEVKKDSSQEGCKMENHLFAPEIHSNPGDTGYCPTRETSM
The experiment in a line: cell-based or functional assay.

B1: human Kv10.1 (other)
chain: MLKQSERRRSWSYRPWNTTENEGSQHRRSICSLGARSGSQASIHGWTEGNYNYYIEEDEDGEEEDQWKDDLAEEDQQAGEVTTAKPEGPSDPPALLSTLNVNVGGHSYQLDYCELAGFPKTRLGRLATSTSRSRQLSLCDDYEEQTDEYFFDRDPAVFQLVYNFYLSGVLLVLDGLCPRRFLEELGYWGVRLKYTPRCCRICFEERRDELSERLKIQHELRAQAQVEEAEELFRDMRFYGPQRRRLWNLMEKPFSSVAAKAIGVASSTFVLVSVVALALNTVEEMQQHSGQGEGGPDLRPILEHVEMLCMGFFTLEYLLRLASTPDLRRFARSALNLVDLVAILPLYLQLLLECFTGEGHQRGQTVGSVGKVGQVLRVMRLMRIFRILKLARHSTGLRAFGFTLRQCYQQVGCLLLFIAMGIFTFSAAVYSVEHDVPSTNFTTIPHSWWWAAVSISTVGYGDMYPETHLGRFFAFLCIAFGIILNGMPISILYNKFSDYYSKLKAYEYTTIRRERGEVNFMQRARKKIAECLLGSNPQLTPRQEN
In the case of B1, the “rate of activation at 0 mV” value is roughly 2 fold.
